{"source": "IntAct's records for PubMed 31515488", "parents": {"B1": {"name": "E3 ubiquitin-protein ligase CCNB1IP1 (Homo sapiens), Q9NPC3 (parent)", "chain": "MSLCEDMLLCNYRKCRIKLSGYAWVTACSHIFCDQHGSGEFSRSPAICPACNSTLSGKLDIVRTELSPSEEYKAMVLAGLRPEIVLDISSRALAFWTYQVHQERLYQEYNFSKAEGHLKQMEKIYTQQIQSKDVELTSMKGEVTSMKKVLEEYKKKFSDISEKLMERNRQYQKLQGLYDSLRLRNITIANHEGTLEPSMIAQSGVLGFPLGNNSKFPLDNTPVRNRGDGDGDFQFRPFFAGSPTAPEPSNSFFSFVSPSRELEQQQVSSRAFKVKRI", "partner": "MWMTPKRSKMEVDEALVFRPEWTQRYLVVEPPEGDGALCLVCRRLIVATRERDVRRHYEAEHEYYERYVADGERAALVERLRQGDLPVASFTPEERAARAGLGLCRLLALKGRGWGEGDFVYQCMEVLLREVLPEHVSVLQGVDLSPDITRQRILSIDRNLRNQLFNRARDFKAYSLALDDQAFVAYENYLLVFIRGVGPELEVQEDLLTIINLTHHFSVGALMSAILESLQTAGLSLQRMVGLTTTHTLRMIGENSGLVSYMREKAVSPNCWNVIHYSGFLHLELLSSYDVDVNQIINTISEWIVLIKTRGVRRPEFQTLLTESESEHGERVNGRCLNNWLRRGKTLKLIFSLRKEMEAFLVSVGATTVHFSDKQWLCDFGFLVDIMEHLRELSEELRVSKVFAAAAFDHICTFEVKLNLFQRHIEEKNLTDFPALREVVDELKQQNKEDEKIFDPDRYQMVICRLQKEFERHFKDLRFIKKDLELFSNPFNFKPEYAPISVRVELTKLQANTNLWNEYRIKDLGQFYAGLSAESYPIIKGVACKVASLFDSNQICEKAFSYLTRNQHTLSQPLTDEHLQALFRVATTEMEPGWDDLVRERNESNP"}, "B2": {"name": "MAP kinase-activated protein kinase 3 (Homo sapiens), Q16644 (parent)", "chain": "MDGETAEEQGGPVPPPVAPGGPGLGGAPGGRREPKKYAVTDDYQLSKQVLGLGVNGKVLECFHRRTGQKCALKLLYDSPKARQEVDHHWQASGGPHIVCILDVYENMHHGKRCLLIIMECMEGGELFSRIQERGDQAFTEREAAEIMRDIGTAIQFLHSHNIAHRDVKPENLLYTSKEKDAVLKLTDFGFAKETTQNALQTPCYTPYYVAPEVLGPEKYDKSCDMWSLGVIMYILLCGFPPFYSNTGQAISPGMKRRIRLGQYGFPNPEWSEVSEDAKQLIRLLLKTDPTERLTITQFMNHPWINQSMVVPQTPLHTARVLQEDKDHWDEVKEEMTSALATMRVDYDQVKIKDLKTSNNRLLNKRRKKQAGSSSASQGCNNQ"}, "B3": {"name": "Synaptotagmin-like protein 5 (Homo sapiens), Q8TDW5 (parent)", "chain": "MSKNSEFINLSFLLDHEKEMILGVLKRDEYLKKVEDKRIRKLKNELLEAKRRSGKTQQEASRVCVHCHRNLGLIFDRGDPCQACSLRVCRECRVAGPNGSWKCTVCDKIAQLRIITGEWFFEEKAKRFKQVNVLGTDVVRQSILRRSPGAEEVQSQEQTRQDAEKSDTSPVAGKKASHDGPKRKGFLLSKFRSATRGEIITPKTDTGRSYSLDLDGQHFRSLKSPPGSDRGSTGSSDLNDQEPGPRTPKSSRSNGVTPGTQSSPAPSTRTVTSVISREYGFENSMDLAAIEGTSQELTKSHRRNTSGTPSIAVSGTSLSSDQSRSELDLSESFTEDSEDTVSIRSKSVPGALDKDSLEETEESIDALVSSQLSTNTHRLASGLSTTSLNSMMSVYSETGDYGNVKVSGEILLHISYCYKTGGLYIFVKNCRNLAIGDEKKQRTDAYVKSYLLPDKSRNNKRKTKIRTGTNPEFNETLKYTISHTQLETRTLQLSVWHYDRFGRNSFLGEVEIPFDSWNFENPTDEWFVLQPKVEFAPDIGLQYKGELTVVLRYIPPEENLMLPPEQLQGNKTFKKGKKKESPVISGGILEVFIKEAKNLTAVKSGGTSDSFVKGYLLPDDSKATKHKTLVIKKSVNPQWNHTFMFSGIHPQDIKNVCLELTIWDKEAFSSNIFLGGVRLNSGSGVSHGKNVDWMDSQGEEQRLWQKMANNPGTPFEGVLMLRSSMGKCRL"}, "B4": {"name": "Complex I assembly factor TIMMDC1, mitochondrial (Homo sapiens), Q9NPL8 (parent)", "chain": "MEVPPPAPRSFLCRALCLFPRVFAAEAVTADSEVLEERQKRLPYVPEPYYPESGWDRLRELFGKDEQQRISKDLANICKTAATAGIIGWVYGGIPAFIHAKQQYIEQSQAEIYHNRFDAVQSAHRAATRGFIRYGWRWGWRTAVFVTIFNTVNTSLNVYRNKDALSHFVIAGAVTGSLFRINVGLRGLVAGGIIGALLGTPVGGLLMAFQKYSGETVQERKQKDRKALHELKLEEWKGRLQVTEHLPEKIESSLQEDEPENDAKKIEALLNLPRNPSVIDKQDKD", "partner": "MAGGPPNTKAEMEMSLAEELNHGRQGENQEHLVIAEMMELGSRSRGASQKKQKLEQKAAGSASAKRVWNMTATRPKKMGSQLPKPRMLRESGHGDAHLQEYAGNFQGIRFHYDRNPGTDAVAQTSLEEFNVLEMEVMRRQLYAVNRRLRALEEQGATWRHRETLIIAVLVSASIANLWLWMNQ"}, "B5": {"name": "Protein LDOC1 (Homo sapiens), O95751 (parent)", "chain": "MVDELVLLLHALLMRHRALSIENSQLMEQLRLLVCERASLLRQVRPPSCPVPFPETFNGESSRLPEFIVQTASYMLVNENRFCNDAMKVAFLISLLTGEAEEWVVPYIEMDSPILGDYRAFLDEMKQCFGWDDDEDDDDEEEEDDY", "partner": "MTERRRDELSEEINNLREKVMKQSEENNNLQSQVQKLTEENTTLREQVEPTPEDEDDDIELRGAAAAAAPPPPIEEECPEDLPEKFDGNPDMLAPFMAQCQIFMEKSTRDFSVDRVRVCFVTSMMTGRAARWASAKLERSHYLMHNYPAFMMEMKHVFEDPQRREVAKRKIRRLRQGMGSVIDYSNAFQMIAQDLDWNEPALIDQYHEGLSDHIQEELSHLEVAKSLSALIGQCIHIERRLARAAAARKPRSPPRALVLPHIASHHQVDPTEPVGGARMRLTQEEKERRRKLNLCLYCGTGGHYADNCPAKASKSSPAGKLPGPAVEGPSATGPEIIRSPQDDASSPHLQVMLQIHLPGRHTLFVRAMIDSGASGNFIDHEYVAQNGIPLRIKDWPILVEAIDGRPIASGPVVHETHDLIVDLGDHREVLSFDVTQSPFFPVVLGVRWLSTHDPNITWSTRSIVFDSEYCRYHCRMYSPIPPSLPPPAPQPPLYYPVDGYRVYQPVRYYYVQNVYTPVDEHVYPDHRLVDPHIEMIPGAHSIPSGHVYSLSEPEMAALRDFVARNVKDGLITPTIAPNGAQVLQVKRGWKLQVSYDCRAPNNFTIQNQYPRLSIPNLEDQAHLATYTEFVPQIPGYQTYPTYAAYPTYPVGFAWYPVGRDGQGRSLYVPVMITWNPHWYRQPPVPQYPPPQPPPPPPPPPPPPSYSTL"}, "B6": {"name": "Myotubularin-related protein 9 (Homo sapiens), Q96QG7 (parent)", "chain": "MEFAELIKTPRVDNVVLHRPFYPAVEGTLCLTGHHLILSSRQDNTEELWLLHSNIDAIDKRFVGSLGTIIIKCKDFRIIQLDIPGMEECLNIASSIEALSTLDSITLMYPFFYRPMFEVIEDGWHSFLPEQEFELYSSATSEWRLSYVNKEFAVCPSYPPIVTVPKSIDDEALRKVATFRHGGRFPVLSYYHKKNGMVIMRSGQPLTGTNGRRCKEDEKLINATLRAGKRGYIIDTRSLNVAQQTRAKGGGFEQEAHYPQWRRIHKSIERYHILQESLIKLVEACNDQTHNMDRWLSKLEASNWLTHIKEILTTACLAAQCIDREGASILIHGTEGTDSTLQVTSLAQIILEPRSRTIRGFEALIEREWLQAGHPFQQRCAQSAYCNTKQKWEAPVFLLFLDCVWQILRQFPCSFEFNENFLIMLFEHAYASQFGTFLGNNESERCKLKLQQKTMSLWSWVNQPSELSKFTNPLFEANNLVIWPSVAPQSLPLWEGIFLRWNRSSKYLDEAYEEMVNIIEYNKELQAKVNILRRQLAELETEDGMQESP", "partner": "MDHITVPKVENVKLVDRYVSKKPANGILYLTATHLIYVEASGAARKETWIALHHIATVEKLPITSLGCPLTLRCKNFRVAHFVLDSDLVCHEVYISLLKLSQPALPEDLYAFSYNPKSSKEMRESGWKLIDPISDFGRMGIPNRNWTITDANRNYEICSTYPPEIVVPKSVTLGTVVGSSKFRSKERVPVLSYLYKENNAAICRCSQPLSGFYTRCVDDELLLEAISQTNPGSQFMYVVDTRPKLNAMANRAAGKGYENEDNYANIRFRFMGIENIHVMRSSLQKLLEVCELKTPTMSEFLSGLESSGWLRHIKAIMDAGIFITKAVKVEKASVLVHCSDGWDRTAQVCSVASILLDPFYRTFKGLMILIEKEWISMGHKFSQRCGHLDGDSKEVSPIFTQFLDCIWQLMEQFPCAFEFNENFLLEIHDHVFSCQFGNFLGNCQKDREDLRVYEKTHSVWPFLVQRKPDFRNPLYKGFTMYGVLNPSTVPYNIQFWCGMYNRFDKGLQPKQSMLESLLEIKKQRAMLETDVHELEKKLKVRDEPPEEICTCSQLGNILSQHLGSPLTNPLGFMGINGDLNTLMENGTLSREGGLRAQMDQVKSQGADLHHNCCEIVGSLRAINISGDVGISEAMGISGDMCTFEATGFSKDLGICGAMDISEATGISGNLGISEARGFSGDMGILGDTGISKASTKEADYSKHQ"}}, "data": [{"variants_of": "B1", "settings": "with epmip_human EPM2AIP1, Q7L775", "values": [{"variant": "F41L", "effect of a mutation on the interaction": "with no effect"}, {"variant": "N212D", "effect of a mutation on the interaction": "with no effect"}]}, {"variants_of": "B2", "settings": "with mk14_human MAPK14, Q16539", "values": [{"variant": "E105A", "effect of a mutation on the interaction": "with no effect"}]}, {"variants_of": "B3", "settings": "with cep70_human CEP70, Q8NHQ1", "values": [{"variant": "S369P", "effect of a mutation on the interaction": "with no effect"}, {"variant": "D400N", "effect of a mutation on the interaction": "with no effect"}, {"variant": "R160H", "effect of a mutation on the interaction": "with no effect"}]}, {"variants_of": "B4", "settings": "with fate1_human FATE1, Q969F0", "values": [{"variant": "A164G", "effect of a mutation on the interaction": "with no effect"}, {"variant": "N76D", "effect of a mutation on the interaction": "with no effect"}, {"variant": "P247S", "effect of a mutation on the interaction": "with no effect"}]}, {"variants_of": "B5", "settings": "with peg10_human PEG10, Q86TG7", "values": [{"variant": "L12H", "effect of a mutation on the interaction": "with no effect"}]}, {"variants_of": "B6", "settings": "with mtmr8_human MTMR8, Q96EF0", "values": [{"variant": "S126C", "effect of a mutation on the interaction": "with no effect"}]}]}
